From patent US20260209387A1, “SINGLE-DOMAIN ANTIBODY FOR INHIBITION OF NEUTROPHIL ELASTASE ACTIVITY” (UNIVERSITE DE LIEGE, priority 2023, published 2026) come the findings set out here.

One assay addresses T1, mNE (Mus musculus, UniProt Q3UP87).
T1 sequence (Q3UP87 27-265): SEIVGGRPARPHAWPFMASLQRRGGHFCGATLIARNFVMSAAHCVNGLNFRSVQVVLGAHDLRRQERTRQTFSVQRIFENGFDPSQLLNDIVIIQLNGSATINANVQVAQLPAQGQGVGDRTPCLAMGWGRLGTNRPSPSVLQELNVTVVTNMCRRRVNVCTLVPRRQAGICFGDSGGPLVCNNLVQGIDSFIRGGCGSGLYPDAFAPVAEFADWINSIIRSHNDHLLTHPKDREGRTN
The assay can be described thus: Affinity of NbE201 for mNE by BLI. In kind it is binding. As to the method: For mNE, NbE201_Cter Biot was immobilized on SA biosensors (Sartorius) via the C-terminal biotin following the provider's indications. Then, the biosensors were immersed in a solution of mNE at different concentrations (100-50-25-12.5-6.25-3.125 nM). Association and dissociation kinetics were measured for 300 s and 600 s respectively. All the experiments (for both hNE and mNE) were carried out at 30° C. in 384-wells black-bottom microplates in polypropylene (Greiner Bio-One, Belgium) and with orbital agitation (1000 rpm). The obtained sensorgrams were fitted to a 1:1 model by using the Data Analysis Octet Software Version 10.0 (Sartorius) to derive the rate constants for association (kon) and dissociation (koff) and the equilibrium dissociation constant (KD-koff/kon).

The next assay deals with T2, hNE (Homo sapiens, UniProt P08246).
T2 construct: purchased Elastin Products Company (EPC)
T2 sequence (P08246 30-247): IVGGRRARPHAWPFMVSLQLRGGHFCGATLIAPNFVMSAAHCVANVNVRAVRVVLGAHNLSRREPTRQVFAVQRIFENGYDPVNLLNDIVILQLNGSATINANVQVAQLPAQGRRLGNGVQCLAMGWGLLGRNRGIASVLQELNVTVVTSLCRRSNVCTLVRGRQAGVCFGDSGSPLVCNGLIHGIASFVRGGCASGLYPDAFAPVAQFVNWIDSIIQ
The assay can be described thus: Competitive binding by BLI with AAT, EI3 and Nb-H7S-Nter-P1. As to the method:
The biotinylated NbE201 (10 μg/ml in KB buffer) was immobilized on streptavidin biosensors (SA, Sartorius) following the provider's indications. A biosensor quenching step with biocytin 1 μg/mL was performed. […] The association was measured for 280 s in kinetic buffer (KB buffer, Sartorius). The experiments were carried out at 30° C. in 384-wells black-bottom microplates in polypropylene (Greiner Bio-One, Belgium) and with agitation (1000 rpm).

Assay [1] has as its target T3, human proteinase 3 (hPR3) (Homo sapiens, UniProt P24158).
T3 construct: purchased EPC (Elastin Products Company)
T3 sequence (P24158 28-248): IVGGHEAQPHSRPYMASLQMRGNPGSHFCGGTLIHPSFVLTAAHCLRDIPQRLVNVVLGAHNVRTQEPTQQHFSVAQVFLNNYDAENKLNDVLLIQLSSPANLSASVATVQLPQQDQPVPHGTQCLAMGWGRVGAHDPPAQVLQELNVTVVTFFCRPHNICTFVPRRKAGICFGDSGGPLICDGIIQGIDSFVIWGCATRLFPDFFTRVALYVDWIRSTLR
The assay is described as follows: BLI binding to other serine proteases: hPR3. Conditions: 50 nM protease. Here is the method:
The specificity of NbE201 for hNE was also investigated by BLI. Biotinylated NbE201 (10 μg/mL) was immobilized on streptavidin biosensors (SA, Sartorius) following provider's indications. The biosensors were then immersed in a 50 nM solution of a serine protease. The proteases tested were human cathepsin G (hCG), human proteinase 3 (hPR3), mouse pancreatic elastase (mPE), mouse neutrophil elastase (mNE) and porcine pancreatic elastase (pPE). hNE was used a positive control. The association and dissociation were measured for 70 s and 320 s respectively, in kinetic buffer (KB, Sartorius). The experiments were carried out at 30° C. in 384-wells black-bottom microplates in polypropylene (Greiner Bio-One, Belgium) and with orbital agitation (1000 rpm).
A general note: Biolayer interferometry detects binding as a change in optical thickness at a sensor tip.

The target of the next assay is T4, human cathepsin G (hCG) (Homo sapiens, UniProt P08311).
T4 construct: purchased Calbiochem
T4 sequence (P08311 21-244): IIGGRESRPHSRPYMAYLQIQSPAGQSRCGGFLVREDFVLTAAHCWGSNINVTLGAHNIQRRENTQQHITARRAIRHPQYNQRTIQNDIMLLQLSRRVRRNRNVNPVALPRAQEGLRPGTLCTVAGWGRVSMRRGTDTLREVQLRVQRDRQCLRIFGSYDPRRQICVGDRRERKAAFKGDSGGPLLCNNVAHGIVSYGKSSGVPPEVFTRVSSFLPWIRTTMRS
The assay can be described thus: hCG inhibition, substrate N-Succinyl-Ala-Ala-Pro-Phe p-nitroanilide. Conditions: chromogenic substrate. In kind it is biochemical. From the text: To determine whether NbE201 was specific for hNE, we first investigated its ability to inhibit several serine proteases: pancreatic elastase from pork (pPE, 39.2% sequence identity, from Sigma), mice neutrophil elastase (mNE, 74.9% sequence identity, from EPC) and with two other human serine proteases present in the lung: proteinase 3 (hPR3 from EPC, 54.7% sequence identity) and cathepsin G (hCG from Calbiochem, 36.7% sequence identity). The substrate used were Succinyl-Ala-Ala-Ala-paraNitroAnilide (1 mM in 0.1 M Tris pH 7.5 with NaCl 0.5 M and NaN3 0.01%, % w/v from Sigma-Aldrich) for pPE, MeOSuc-Ala-Ala-Pro-Val-AMC (100 μM in Tris 50 mM, NaCl 1 M, 0.05% (% w/v) Brij-35, pH 7.5) for mNE, N-Succinyl-Ala-Ala-Pro-Phe p-nitroanilide (0.45 mM in 100 mM HEPES pH 7.5, from Sigma Aldrich) for hCG and Boc-Ala-Ala-Nva-SBzl (0.22 mM in 100 mM MOPS pH 5.0 0.5 M NaCl, 100 μM DTNB, DMSO 10%, from EPC) for PR3. mNE (rmELA2 from R&D systems, United Kingdom) was first activated according to the supplier information. In brief, mNE was incubated with recombinant mouse active cathepsin C/DPPIy (rmCathepsin C from R&D systems) in MES 50 mM, NaCl 50 mM, pH 5.5 for 2 h at 37° C. The enzyme concentration in the assay was 6 nM, 14.7 nM, 25 nM, 5 nM for PPE, mNE, hCG and hPR3, respectively. Different molar ratios of NbE201: Enzyme were tested. […]

B1: NbE201: anti-hNE ISVD (VHH/nanobody) from immunized lama, amino acid sequence SEQ ID NO: 4 (protein)
VHH: QVQLQESGGGLVQAGGSLRLSCVVPGRTISLYRMGWFRQAPGKEREFVAGINWSGDMTDYVDSVKGRFTISRDNAKNTVYLEMNSLKPEDTAIYYCTADPKLLPLADSSYGYWGQGTQVTVSS
A word on the koff: it is the first-order rate constant of dissociation. Lower therefore signals a long-lived complex. Broadly, the kon is a measure of how fast the partners come together. Read a low kon as slow association. B1: in the assay with mNE, the dissociation rate constant (koff) was 0.019 s⁻¹ and the kon amounted to 390000 M⁻¹ s⁻¹. Moreover, in the assay with hNE (hNE 250 nM pre-incubated with AAT 1.5 μM), the “binding of hNE in complex with AAT to immobilized NbE201” value is given as “does not bind to NbE201”. For the same molecule, the “binding of hNE pre-incubated with EI3 (MeOSuc-AAPV-CMK) to immobilized NbE201” value with hNE (hNE 250 nM, EI3 15 μM) is listed as “unable to bind to NbE201”. Moreover, the “binding of hNE pre-incubated with cAb-H7S-Nter-P1 to immobilized NbE201” value with hNE (hNE 250 nM, cAb-H7S-Nter-P1 1.5 μM) is given as “unable to bind to NbE201”. The “binding to hPR3 by BLI” value in assay [1] was “does not bind to the other proteases”. In the assay with human cathepsin G (hCG), the “inhibition of human cathepsin G” value was “does not inhibit”.
